Measurements taken from patent publication EP4818204A1 (Nanjing Leads Biolabs Co., Ltd., dated 2026).
Where two headings read alike, the source gives them in different places.

Key:
Experiment in all cases: ELISA, coated protein, antibody at 4 µg/mL
[1] = biological target: T1, human GDF1 protein (human, UniProt P27539 254-372, limits assumed)
T1 construct: Bought
T1 sequence (looked up): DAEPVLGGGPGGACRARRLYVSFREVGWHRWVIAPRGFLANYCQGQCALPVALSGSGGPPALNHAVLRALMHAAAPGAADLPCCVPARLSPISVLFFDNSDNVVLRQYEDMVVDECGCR

[2] = biological target: T2, human GDF2 protein (human, UniProt Q9UK05 320-429)
T2 construct: Bought
T2 sequence (looked up): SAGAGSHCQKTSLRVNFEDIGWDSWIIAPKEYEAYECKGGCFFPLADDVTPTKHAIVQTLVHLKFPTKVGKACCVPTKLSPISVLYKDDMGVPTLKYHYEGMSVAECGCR

[3] = biological target: T3, human GDF3 protein (human, UniProt Q9NR23 251-364, limits assumed)
T3 construct: Bought
T3 sequence (looked up): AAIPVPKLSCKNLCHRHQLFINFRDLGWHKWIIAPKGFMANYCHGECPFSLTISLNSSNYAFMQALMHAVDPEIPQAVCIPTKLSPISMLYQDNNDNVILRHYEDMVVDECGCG

[4] = biological target: T4, human BMP4 protein (human, UniProt P12644 293-408)
T4 construct: Bought
T4 sequence (looked up): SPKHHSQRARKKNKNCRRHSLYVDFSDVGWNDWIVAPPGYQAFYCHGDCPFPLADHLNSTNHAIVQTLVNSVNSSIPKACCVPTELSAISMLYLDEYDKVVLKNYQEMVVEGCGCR

[5] = biological target: T5, human GDF11 protein (human, UniProt O95390 299-407)
T5 construct: Bought
T5 sequence (looked up): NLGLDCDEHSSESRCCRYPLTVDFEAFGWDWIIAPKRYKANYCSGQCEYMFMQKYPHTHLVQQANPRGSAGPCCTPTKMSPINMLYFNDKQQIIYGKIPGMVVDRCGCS

[6] = biological target: T6, human GDNF protein (human, UniProt P39905 78-211)
T6 construct: Bought
T6 sequence (looked up): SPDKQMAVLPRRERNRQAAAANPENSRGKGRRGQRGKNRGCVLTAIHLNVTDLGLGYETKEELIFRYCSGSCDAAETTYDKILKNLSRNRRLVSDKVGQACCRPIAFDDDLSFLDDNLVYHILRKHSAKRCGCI

[7] = biological target: T7, human TGFβ1 protein (human, UniProt P01137 279-390)
T7 construct: Bought

[8] = biological target: T8, human GFRα1 protein (human, UniProt P56159 25-429, limits assumed)
T8 construct: Bought
T8 sequence (looked up): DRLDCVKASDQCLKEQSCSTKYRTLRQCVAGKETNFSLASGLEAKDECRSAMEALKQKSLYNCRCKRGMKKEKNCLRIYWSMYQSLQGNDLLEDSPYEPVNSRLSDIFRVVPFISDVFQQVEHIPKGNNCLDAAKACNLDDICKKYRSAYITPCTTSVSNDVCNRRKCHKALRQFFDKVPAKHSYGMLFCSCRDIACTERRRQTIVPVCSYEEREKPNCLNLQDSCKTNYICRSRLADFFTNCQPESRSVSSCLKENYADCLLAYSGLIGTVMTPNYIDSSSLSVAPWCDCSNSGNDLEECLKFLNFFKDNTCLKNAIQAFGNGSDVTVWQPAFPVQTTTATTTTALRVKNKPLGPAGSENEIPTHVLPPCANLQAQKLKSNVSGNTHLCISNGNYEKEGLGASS

[9] = biological target: T9, human BMP2 protein (human, UniProt P12643 283-396)
T9 construct: Bought

[10] = biological target: T10, human Activin A protein (human, UniProt P08476 311-426)
T10 construct: Bought; Activin A is by nature a dimer of inhibin beta A chains
T10 sequence (looked up): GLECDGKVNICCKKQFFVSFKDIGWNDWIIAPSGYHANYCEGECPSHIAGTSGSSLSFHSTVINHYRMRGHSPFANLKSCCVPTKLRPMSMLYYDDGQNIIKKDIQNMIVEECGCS

[11] = biological target: T11, human Activin B protein (human, UniProt P09529 293-407)
T11 construct: Bought; Activin B is by nature a dimer of inhibin beta B chains
T11 sequence (looked up): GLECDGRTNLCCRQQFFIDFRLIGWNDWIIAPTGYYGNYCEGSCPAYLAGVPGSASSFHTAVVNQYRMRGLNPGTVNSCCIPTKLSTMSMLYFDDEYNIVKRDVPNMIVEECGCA

[12] = biological target: T12, Human GDF15 protein (human, UniProt Q99988 197-308)
T12 construct: Natural GDF15 is said to be a disulfide-linked homodimer; also called Human-GDF15-his
T12 sequence: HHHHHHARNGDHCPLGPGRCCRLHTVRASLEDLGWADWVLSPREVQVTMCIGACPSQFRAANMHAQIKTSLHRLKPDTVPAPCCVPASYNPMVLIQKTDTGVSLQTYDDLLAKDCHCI

[13] = biological target: human AMH protein (human) (UniProt P03971)
[14] = biological target: human GDF8 protein (human) (UniProt O14793)
[15] = biological target: T1, human GDF1 protein; remark: listed apart in the source
[16] = biological target: T2, human GDF2 protein; remark: listed apart in the source
[17] = biological target: T3, human GDF3 protein; remark: listed apart in the source
[18] = biological target: T4, human BMP4 protein; remark: listed apart in the source
[19] = biological target: T5, human GDF11 protein; remark: listed apart in the source
[20] = biological target: T6, human GDNF protein; remark: listed apart in the source
[21] = biological target: T7, human TGFβ1 protein; remark: listed apart in the source
[22] = biological target: T8, human GFRα1 protein; remark: listed apart in the source
[23] = biological target: T9, human BMP2 protein; remark: listed apart in the source
[24] = biological target: T10, human Activin A protein; remark: listed apart in the source
[25] = biological target: T11, human Activin B protein; remark: listed apart in the source
[26] = biological target: T12, Human GDF15 protein; remark: listed apart in the source
[27] = biological target: human AMH protein (human) (UniProt P03971); remark: listed apart in the source
[28] = biological target: human GDF8 protein (human) (UniProt O14793); remark: listed apart in the source

T7 sequence (P01137 279-390 limits assumed): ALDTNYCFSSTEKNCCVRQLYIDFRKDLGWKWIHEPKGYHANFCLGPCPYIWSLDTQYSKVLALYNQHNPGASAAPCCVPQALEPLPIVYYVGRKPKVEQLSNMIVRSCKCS
T9 sequence (P12643 283-396 limits assumed): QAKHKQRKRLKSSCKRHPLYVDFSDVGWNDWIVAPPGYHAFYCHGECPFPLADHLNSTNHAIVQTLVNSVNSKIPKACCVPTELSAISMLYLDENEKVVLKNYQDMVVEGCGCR

Substance “IgG control (Sino Biological, Cat. No.: HG1K) (antibody)” has an OD value (OD 450 nm-620 nm) [1] of 0.0416, an OD value (OD 450 nm-620 nm) [2] of 0.0622 and an OD value (OD 450 nm-620 nm) [3] of 0.04. It also gave an OD value (OD 450 nm-620 nm) [4] of 0.0439, an OD value (OD 450 nm-620 nm) [5] of 0.038 and an OD value (OD 450 nm-620 nm) [6] of 0.036. For the same substance, the OD value (OD 450 nm-620 nm) [7] was 0.0376, the OD value (OD 450 nm-620 nm) [8] was 0.125 and the OD value (OD 450 nm-620 nm) [9] was 0.0463. It also gave an OD value (OD 450 nm-620 nm) [10] of 0.0524, an OD value (OD 450 nm-620 nm) [11] of 0.168 and an OD value (OD 450 nm-620 nm) [12] of 0.0386. For the same substance, the OD value (OD 450 nm-620 nm) [13] was 0.0465, the OD value (OD 450 nm-620 nm) [14] was 0.0351 and the OD value (OD 450 nm-620 nm) [15] was 0.101. The OD value (OD 450 nm-620 nm) [16] was 0.0444, the OD value (OD 450 nm-620 nm) [17] was 0.0556 and the OD value (OD 450 nm-620 nm) [18] was 0.0464. It also gave an OD value (OD 450 nm-620 nm) [19] of 0.0659, an OD value (OD 450 nm-620 nm) [20] of 0.0493 and an OD value (OD 450 nm-620 nm) [21] of 0.111. For the same substance, the OD value (OD 450 nm-620 nm) [22] was 0.0807, the OD value (OD 450 nm-620 nm) [23] was 0.055 and the OD value (OD 450 nm-620 nm) [24] was 0.0474. It also gave an OD value (OD 450 nm-620 nm) [25] of 0.082, an OD value (OD 450 nm-620 nm) [26] of 0.043 and an OD value (OD 450 nm-620 nm) [27] of 0.0569. The OD value (OD 450 nm-620 nm) [28] was 0.0485.
